Common to all, as to conditions: both partners purified
Test [1] deals with T1, mCherry-tagged full-length Spindly (^mChSpindly^FL) (human, UniProt Q96EA4 1-605).
T1 construct: also called ^mChSpindly^WT; Spindly^WT; source: E. coli BL21 CodonPlus, purified (HisTrap, Resource Q, Superdex 200); not shown: mCherry, N-terminal, kept
T1 sequence (looked up): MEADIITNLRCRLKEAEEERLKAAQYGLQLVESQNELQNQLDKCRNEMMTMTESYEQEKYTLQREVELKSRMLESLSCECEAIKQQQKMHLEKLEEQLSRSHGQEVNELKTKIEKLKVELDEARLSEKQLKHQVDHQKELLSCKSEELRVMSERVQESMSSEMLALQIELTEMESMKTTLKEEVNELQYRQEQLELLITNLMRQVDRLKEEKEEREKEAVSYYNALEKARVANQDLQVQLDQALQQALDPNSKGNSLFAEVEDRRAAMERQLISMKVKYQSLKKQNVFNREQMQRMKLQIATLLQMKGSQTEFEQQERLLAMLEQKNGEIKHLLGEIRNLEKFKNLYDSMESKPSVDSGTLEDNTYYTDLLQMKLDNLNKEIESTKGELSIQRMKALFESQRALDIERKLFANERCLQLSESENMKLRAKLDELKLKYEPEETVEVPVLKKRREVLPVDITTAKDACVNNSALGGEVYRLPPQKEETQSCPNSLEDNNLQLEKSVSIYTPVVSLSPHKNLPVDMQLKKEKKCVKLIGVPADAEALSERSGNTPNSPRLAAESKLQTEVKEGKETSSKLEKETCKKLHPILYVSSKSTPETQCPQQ
The test can be described thus: pull-down; GST or GST-LIC2 bait 4 µM on glutathione beads, mCh-Spindly preys 8 µM, 4°C 1 h, Spindly buffer; eluted with glutathione; mCherry fluorescence of the gel band quantified against Spindly FL.

Test [2] deals with T2, ^mChSpindly^CC2* (R295E-K297E) (human, UniProt Q96EA4 1-605, R295E | K297E).
T2 construct: source: E. coli BL21 CodonPlus, purified (HisTrap, Resource Q, Superdex 200); not shown: mCherry, N-terminal, kept
T2 sequence (looked up): T1 sequence (looked up) with R295E, K297E
The description is as above.

The next test deals with T3, ^mChSpindly^ΔRV (human, UniProt Q96EA4 1-605, ΔRV (residues R154–V155)).
T3 construct: also called ^mChSpindly^∆RV; source: E. coli BL21 CodonPlus, purified (HisTrap, Resource Q, Superdex 200); not shown: mCherry, N-terminal, kept
T3 sequence (looked up): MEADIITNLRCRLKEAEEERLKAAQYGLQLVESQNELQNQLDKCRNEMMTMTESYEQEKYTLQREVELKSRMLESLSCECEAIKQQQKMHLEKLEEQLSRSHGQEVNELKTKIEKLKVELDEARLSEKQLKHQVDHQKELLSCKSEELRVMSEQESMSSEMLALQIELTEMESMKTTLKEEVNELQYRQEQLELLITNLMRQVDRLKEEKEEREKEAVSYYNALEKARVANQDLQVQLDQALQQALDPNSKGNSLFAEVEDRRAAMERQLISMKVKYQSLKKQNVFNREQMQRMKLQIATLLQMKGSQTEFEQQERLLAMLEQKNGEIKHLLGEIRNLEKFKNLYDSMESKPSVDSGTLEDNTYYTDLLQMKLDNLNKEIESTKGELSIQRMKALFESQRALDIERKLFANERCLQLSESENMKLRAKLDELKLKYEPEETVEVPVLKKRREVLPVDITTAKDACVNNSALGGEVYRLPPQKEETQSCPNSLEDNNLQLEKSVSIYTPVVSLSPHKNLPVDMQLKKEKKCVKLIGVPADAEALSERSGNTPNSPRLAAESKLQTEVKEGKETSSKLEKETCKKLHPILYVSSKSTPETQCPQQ
The description is as above.

Test [3] has as its target T4, ROD–Zwilch–ZW10 (RZZ) complex (UniProt P50748 1-2209; Q9H900 1-591; O43264 1-779).
T4 construct: ROD; Zwilch; ZW10; also called mCherry-RZZ; copies: + +
The test can be described thus: SEC; Superose 6 5/150; RZZ 2 µM, pre-farnesylated mCh-Spindly construct 6 µM. On the technique in general: Size exclusion chromatography separates by hydrodynamic size, large species first.

Residue numbers refer to the chain shown, from its start.

T4 sequence (P50748 whole entry, chain 1 of 3): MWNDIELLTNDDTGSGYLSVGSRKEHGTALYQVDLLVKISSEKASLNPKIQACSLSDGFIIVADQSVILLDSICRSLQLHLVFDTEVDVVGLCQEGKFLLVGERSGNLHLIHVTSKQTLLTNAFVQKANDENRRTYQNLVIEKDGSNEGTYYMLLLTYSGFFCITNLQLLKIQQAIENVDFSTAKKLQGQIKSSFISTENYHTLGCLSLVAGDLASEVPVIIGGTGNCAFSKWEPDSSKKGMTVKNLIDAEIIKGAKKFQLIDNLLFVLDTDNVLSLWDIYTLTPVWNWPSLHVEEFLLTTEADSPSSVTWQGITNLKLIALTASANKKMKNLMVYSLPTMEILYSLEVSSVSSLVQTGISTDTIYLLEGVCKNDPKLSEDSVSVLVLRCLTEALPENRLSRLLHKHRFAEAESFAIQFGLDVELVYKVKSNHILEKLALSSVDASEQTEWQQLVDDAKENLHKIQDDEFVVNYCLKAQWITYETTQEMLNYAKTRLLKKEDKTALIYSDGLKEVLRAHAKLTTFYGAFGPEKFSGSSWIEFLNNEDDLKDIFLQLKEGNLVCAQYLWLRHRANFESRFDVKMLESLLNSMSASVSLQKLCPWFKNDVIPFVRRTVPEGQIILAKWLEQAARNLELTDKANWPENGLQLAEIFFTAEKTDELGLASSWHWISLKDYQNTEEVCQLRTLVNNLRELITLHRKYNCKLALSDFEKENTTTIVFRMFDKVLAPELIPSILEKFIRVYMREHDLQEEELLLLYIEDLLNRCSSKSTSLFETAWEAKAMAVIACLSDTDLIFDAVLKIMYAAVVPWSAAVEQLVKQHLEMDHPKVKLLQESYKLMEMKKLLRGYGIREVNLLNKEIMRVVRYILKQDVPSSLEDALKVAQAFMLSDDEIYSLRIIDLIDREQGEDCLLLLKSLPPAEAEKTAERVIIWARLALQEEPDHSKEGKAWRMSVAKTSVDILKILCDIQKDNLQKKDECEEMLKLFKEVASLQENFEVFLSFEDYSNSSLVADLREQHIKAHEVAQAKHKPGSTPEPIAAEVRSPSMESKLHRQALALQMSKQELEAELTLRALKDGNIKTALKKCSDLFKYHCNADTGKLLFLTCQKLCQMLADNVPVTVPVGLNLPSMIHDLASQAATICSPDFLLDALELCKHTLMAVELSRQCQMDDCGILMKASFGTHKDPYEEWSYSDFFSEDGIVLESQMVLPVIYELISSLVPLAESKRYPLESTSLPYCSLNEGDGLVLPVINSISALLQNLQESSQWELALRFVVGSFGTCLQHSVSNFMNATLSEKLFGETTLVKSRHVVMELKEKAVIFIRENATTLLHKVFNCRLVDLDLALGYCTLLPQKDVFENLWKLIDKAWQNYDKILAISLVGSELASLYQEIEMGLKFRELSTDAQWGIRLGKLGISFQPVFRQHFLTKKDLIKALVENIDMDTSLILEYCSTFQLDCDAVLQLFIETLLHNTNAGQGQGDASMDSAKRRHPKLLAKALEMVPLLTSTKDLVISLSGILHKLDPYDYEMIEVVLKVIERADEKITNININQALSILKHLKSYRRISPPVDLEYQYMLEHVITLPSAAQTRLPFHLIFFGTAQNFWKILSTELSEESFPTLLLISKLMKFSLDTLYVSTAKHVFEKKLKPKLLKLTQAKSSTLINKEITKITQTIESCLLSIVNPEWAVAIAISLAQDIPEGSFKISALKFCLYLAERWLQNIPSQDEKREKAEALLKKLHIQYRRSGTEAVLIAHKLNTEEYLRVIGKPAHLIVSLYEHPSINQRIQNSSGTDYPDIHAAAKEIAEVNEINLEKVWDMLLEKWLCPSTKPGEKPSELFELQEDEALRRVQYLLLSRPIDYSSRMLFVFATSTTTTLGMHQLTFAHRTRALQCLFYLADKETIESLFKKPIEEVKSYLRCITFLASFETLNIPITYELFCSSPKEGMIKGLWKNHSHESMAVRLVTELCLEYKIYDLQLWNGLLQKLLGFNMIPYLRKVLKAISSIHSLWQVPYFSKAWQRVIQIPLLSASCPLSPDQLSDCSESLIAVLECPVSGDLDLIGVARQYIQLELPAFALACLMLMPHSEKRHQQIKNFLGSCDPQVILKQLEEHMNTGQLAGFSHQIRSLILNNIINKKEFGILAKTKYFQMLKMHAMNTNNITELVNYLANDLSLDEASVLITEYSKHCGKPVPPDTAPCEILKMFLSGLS
T4 sequence (Q9H900 whole entry, chain 2 of 3): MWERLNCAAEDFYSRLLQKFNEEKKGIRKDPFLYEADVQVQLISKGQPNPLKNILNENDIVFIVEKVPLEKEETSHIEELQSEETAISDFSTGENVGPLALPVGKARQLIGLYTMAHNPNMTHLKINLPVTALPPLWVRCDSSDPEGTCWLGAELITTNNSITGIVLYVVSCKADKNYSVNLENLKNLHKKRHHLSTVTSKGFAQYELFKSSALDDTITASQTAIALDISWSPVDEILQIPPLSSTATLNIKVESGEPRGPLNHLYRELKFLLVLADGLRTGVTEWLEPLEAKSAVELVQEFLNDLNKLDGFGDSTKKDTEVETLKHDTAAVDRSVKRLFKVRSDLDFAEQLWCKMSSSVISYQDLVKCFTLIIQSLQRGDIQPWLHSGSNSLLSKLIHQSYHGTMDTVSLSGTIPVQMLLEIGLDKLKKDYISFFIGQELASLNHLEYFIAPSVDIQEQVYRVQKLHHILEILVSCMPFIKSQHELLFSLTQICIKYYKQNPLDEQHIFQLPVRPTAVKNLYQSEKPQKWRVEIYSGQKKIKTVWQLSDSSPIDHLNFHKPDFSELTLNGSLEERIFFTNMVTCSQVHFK
T4 sequence (O43264 whole entry, chain 3 of 3): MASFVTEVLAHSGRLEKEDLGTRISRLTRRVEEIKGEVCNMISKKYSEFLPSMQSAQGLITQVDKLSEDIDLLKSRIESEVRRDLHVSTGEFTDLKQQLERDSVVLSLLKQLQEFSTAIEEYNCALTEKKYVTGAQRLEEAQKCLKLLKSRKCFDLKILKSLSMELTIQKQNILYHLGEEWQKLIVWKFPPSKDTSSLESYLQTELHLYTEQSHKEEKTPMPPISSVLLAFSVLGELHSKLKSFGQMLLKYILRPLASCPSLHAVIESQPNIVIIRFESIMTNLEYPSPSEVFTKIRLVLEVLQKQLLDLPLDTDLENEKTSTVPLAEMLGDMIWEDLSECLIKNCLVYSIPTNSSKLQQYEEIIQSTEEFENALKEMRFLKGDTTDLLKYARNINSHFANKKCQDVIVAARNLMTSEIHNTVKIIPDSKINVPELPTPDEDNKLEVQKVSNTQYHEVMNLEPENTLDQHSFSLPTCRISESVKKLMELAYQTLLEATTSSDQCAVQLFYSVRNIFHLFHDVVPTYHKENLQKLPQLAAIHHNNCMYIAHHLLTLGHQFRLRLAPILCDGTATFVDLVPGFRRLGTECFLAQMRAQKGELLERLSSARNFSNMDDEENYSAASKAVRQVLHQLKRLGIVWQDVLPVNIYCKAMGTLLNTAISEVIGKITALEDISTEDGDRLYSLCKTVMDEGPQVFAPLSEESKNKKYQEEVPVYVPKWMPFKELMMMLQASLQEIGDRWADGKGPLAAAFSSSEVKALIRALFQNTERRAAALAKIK

B1: GST-LIC2 (natural protein, human, UniProt O43237 1-492, looked up)
chain: MAPVGVEKKLLLGPNGPAVAAAGDLTSEEEEGQSLWSSILSEVSTRARSKLPSGKNILVFGEDGSGKTTLMTKLQGAEHGKKGRGLEYLYLSVHDEDRDDHTRCNVWILDGDLYHKGLLKFAVSAESLPETLVIFVADMSRPWTVMESLQKWASVLREHIDKMKIPPEKMRELERKFVKDFQDYMEPEEGCQGSPQRRGPLTSGSDEENVALPLGDNVLTHNLGIPVLVVCTKCDAVSVLEKEHDYRDEHLDFIQSHLRRFCLQYGAALIYTSVKEEKNLDLLYKYIVHKTYGFHFTTPALVVEKDAVFIPAGWDNEKKIAILHENFTTVKPEDAYEDFIVKPPVRKLVHDKELAAEDEQVFLMKQQSLLAKQPATPTRASESPARGPSGSPRTQGRGGPASVPSSSPGTSVKKPDPNIKNNAASEGVLASFFNSLLSKKTGSPGSPGAGGVQSTAKKSGQKTVLSNVQEELDRMTRKPDSMVTNSSTENEA
notes: Dynein light intermediate chain 2 (LIC2), human; GST is TEV-cleavable but was used as the handle on glutathione beads; also called GST-tagged LIC2; source: TnAO38 insect cells (baculovirus), purified (GSTrap, Superdex 200); not shown: GST, N-terminal, kept
As to B1, the binding result (in test [1]; in test [2]; with ^mChSpindly^ΔRV) was “binds” each time.

B2: pre-farnesylated ^mChSpindly^CC2* (natural protein, human, UniProt Q96EA4 1-605, looked up)
chain: T1 sequence (looked up) with R295E, K297E
modifications: farnesylated (residue not given)
notes: source: E. coli BL21 CodonPlus, purified; farnesylated in vitro with farnesyltransferase; not shown: mCherry, N-terminal, kept
Take B2: in test [3], the binding result is “binds”.

Values taken from paper PMC9481740 (The Journal of Cell Biology, 2022).
